Square brackets hold non-standard residues; d marks the D form. Where only a bound is given, the exact number is not on record here.

The IC50 is the concentration at which inhibition is half-maximal. High values mean weaker potency in that assay, low ones greater potency in that assay.

The target of assay [1] is integrin αIIbβ3, purified and immobilized (UniProt P08514). The assay is described as follows: solid phase receptor binding assay, iodinated MMP-2 on immobilized αIIbβ3.
Assay [2] addresses integrin αvβ3 (vitronectin receptor), purified and immobilized (UniProt P06756). The experiment in a line: solid phase receptor binding assay, iodinated MMP-2 on immobilized αvβ3.
The target of assay [3] is T1, integrin αIIbβ3, purified and immobilized (UniProt P08514 32-1039; P05106 27-788).
T1 construct: Purified integrin coated at 50 ng per well; also called α11bβ3
The experiment in a line: competition, fibrinogen (FG) binding to immobilized αIIbβ3; individual assay.
Method: (§1) Briefly, selected purified integrins were separately immobilized in Titertek microtiter wells at a coating concentration of 50 nanograms (ng) per well. […] After incubation for 18 hours at 4C, nonspecific binding sites on the plate were blocked with 10 milligrams/milliliter (mg/ml) of bovine serum albumin (BSA) in Tris-buffered saline. […] Radiolabeled ligands were used at concentrations of 1 nM and binding was challenged separately with unlabeled synthetic peptides.
(§2) Following a three hour incubation, free ligand was removed by washing and bound ligand was detected by gamma counting.

Assay [4] addresses T1, integrin αIIbβ3, purified and …. The assay is described as follows: competition, vitronectin (VN) binding to immobilized αIIbβ3; individual assay.
Method: as §1, §2
Assay [5] concerns the target T2, integrin αvβ3 (vitronectin receptor), purified and immobilized (UniProt P06756 31-1048; P05106 27-788).
T2 construct: Purified integrin coated at 50 ng per well; also called αvβ3 receptor
The experiment in a line: competition, fibrinogen (FG) binding to immobilized αvβ3; individual assay.
Method: as §1, §2

The target of assay [6] is T2, integrin αvβ3 (vitronectin receptor), …. The assay is described as follows: competition, vitronectin (VN) binding to immobilized αvβ3; individual assay.
Method: as §1, §2
The target is the same in assay [7]. The experiment in a line: competition, 125I-fibrinogen (1 nM) binding to immobilized purified αvβ3, gamma counting; mean of duplicates ± SD.
Method: as §1, §2
The target of assay [8] is T1, integrin αIIbβ3, purified and …. The experiment in a line: competition, 125I-fibrinogen (1 nM) binding to immobilized purified αIIbβ3, gamma counting; mean of duplicates ± SD.
Method: as §1, §2

T2 sequence (P06756 31-1048, form in doubt, chain 1 of 2): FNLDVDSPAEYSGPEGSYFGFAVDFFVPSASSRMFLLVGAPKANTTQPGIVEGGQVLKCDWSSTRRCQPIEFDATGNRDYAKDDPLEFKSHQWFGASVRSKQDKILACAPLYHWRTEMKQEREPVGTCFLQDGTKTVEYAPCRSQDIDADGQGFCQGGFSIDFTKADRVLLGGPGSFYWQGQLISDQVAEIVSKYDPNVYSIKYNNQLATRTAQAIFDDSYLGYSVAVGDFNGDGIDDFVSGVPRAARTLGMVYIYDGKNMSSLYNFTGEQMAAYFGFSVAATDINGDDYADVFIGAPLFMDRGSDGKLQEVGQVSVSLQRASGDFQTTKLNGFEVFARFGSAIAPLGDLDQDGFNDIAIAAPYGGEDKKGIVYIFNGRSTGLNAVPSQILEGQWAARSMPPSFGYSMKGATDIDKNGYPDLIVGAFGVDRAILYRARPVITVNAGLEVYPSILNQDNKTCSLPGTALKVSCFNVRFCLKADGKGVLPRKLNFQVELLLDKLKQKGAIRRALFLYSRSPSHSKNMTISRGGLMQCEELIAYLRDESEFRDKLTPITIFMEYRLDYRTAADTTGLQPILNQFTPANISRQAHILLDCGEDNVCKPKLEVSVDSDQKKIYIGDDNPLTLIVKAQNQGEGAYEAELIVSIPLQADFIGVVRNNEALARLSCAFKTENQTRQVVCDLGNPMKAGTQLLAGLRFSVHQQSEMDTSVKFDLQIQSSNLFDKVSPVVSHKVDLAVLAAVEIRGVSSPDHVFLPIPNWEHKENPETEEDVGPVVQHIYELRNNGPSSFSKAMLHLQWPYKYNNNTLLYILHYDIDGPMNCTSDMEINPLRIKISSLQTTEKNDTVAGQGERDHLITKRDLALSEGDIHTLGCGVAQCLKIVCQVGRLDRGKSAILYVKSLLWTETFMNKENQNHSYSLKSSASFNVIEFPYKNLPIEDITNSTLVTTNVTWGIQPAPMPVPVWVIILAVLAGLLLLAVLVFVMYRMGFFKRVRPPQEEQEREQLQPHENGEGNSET
T2 sequence (P05106 27-788, form in doubt, chain 2 of 2): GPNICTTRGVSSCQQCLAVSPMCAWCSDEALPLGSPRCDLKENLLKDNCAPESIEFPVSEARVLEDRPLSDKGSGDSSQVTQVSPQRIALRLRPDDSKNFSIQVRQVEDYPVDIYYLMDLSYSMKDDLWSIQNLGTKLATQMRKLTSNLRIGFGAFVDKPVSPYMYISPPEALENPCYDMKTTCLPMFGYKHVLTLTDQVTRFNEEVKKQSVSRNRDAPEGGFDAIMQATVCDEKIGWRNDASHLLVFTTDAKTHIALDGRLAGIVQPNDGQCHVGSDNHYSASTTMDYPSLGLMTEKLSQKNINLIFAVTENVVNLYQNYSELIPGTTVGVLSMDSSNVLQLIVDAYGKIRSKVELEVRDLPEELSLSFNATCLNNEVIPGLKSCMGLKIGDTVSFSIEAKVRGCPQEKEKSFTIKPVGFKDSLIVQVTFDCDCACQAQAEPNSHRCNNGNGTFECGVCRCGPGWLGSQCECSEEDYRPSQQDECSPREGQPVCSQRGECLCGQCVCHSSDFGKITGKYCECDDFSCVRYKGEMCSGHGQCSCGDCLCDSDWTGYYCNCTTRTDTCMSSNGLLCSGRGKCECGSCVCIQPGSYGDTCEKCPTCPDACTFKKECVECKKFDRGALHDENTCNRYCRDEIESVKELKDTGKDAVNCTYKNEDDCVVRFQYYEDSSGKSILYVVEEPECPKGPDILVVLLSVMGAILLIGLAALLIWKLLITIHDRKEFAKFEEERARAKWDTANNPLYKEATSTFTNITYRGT
Sequence of integrin αvβ3 (vitronectin receptor), purified and immobilized (UniProt P06756) (P06756 31-1048, form in doubt, chain 1 of 2): as the sequence (P06756 31-1048, form in doubt, chain 1 of 2) above
Sequence of integrin αvβ3 (vitronectin receptor), purified and immobilized (UniProt P06756) (P05106 27-788, form in doubt, chain 2 of 2, further chain): as the sequence (P05106 27-788, form in doubt, chain 2 of 2) above

Turning to “MMP-2 (matrix metalloproteinase-2) as used in the solid phase receptor binding assays (enzyme)”, the bound cpm in assay [1] stood at 10 CPM; in assay [2] it was 300 cpm.

B1: peptide 62880, YTAECKPQVTRGDVF (peptide)
peptide: YTAECKPQVTRGDVF
notes: Linear synthetic peptide; also called VN-derived amino acid residues 35-49
As for B1, the IC50 in assay [3] was 4.2 µM; in assay [4], 0.98 µM; in assay [5] it was < 0.1 µM; in assay [6] it was 0.5 µM.

B2: peptide 62411, TRQVVCDLGNPM (peptide)
peptide: TRQVVCDLGNPM
notes: Linear synthetic peptide; also called αv-derived amino acid residues 676-687
On to B2, for which the IC50 in assay [4], in assay [5] and in assay [6] was > 100 µM in each case.

Take cyclo(GRGD[dF]L) (also: TFA salt, TFA salt) [peptide 62179, cyclo(GRGDfL)]: the IC50 in assay [7] worked out at 0.395 µM; in assay [8], 0.055 µM.

B3: peptide 62181, cyclo(GrGDFV) (peptide)
peptide: cyclo(G[dR]GDFV)
modifications: also: TFA salt
notes: TFA salt; also called cyclo(-Gly-D-Arg-Gly-Asp-Phe-Val); c-(GrGDFV)
In the case of B3, the values for the IC50 in assay [7] and in assay [8] were 1.96 µM and 15 µM, respectively.

With cyclo(ARGD[dF]L) (also: TFA salt, TFA salt) [peptide 62175, cyclo(ARGDfL)], the IC50 in assay [7] amounted to 1.05 µM; in assay [8], 0.63 µM.

B4: peptide 62502, TDVNGDGRHDL (peptide)
peptide: TDVNGDGRHDL
notes: Linear synthetic peptide; also called αIIb-derived amino acid residues 296-306
B4: the IC50 in assay [3] was 90 µM; in assay [4] it was 5 µM; in assay [5] it was > 100 µM; in assay [6], > 100 µM.

B5: peptide 62185, cyclo(RADfV) (peptide)
peptide: cyclo(RAD[dF]V)
modifications: also: TFA salt
notes: also called cyclo(Arg-Ala-Asp-D-Phe-Val)
As for B5, the IC50 in assay [7] stood at 0.885 µM; in assay [8] it was 100 µM.

B6: peptide 62186, cyclo(RaDFV) (peptide)
peptide: cyclo(R[dA]DFV)
modifications: also: TFA salt
notes: TFA salt; also called cyclo(Arg-D-Ala-Asp-Phe-Val)
Regarding B6, the IC50 in assay [7] turned out to be 57.5 µM; in assay [8] it was 100 µM.

B7: peptide 62503, GVVRNNEALARLS (peptide)
peptide: GVVRNNEALARLS
notes: Linear synthetic peptide; also called αv-derived amino acid residues 655-667
For the molecule B7, the IC50 in assay [4], in assay [5] and in assay [6] was > 100 µM each time.

Values taken from patent US20030176334A1 (Scripps Research, published 2003).
